Results reported in paper PMC5615192 (mBio, 2017).

Biological target: MAb A12A3 (mouse)
Assay: SPR; Biacore 3000; MAb (10 ug/ml) captured on a CM-5 chip amine coupled with goat anti-mouse Fc fragment; serially diluted pentamer injected at 30 ul/min for 3.3 min; HBS (10 mM HEPES pH 7.4, 150 mM NaCl); three measurements, mean and standard deviation

Sequence of MAb A12A3 (mouse) (heavy, as listed by the source, chain 1 of 2): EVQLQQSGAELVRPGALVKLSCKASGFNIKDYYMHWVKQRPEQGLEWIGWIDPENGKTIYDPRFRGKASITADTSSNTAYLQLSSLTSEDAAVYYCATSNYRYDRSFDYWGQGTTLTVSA
Sequence of MAb A12A3 (mouse) (light, as listed by the source, chain 2 of 2): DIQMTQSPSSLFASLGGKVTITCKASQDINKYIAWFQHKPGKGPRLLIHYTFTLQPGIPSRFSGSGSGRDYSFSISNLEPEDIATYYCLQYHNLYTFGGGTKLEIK

Binder	Ka	Kd	koff	kon
HPV58 L1 pentamer R161A (natural protein) EATVYLPPVPVSKVVSTDEYVSRTSIYYYAGSSRLLAVGNPYFSIKSPNNNKKVLVPKVSGLQYRVFRVRLPDPNKFGFPDTSFYNPDTQRLVWACVGLEIGRGQPLGVGVSGHPYLNKFDDTETSNAYPAQPGSDNRECLSMDYKQTQLCLIGCKPPTGEHWGKGVACNNNAAATDCPPLELFNSIIEDGDMVDTGFGCMDFGTLQANKSDVPIDICNSTCKYPDYLKMASEPYGDSLFFFLRREQMFVRHFFNRAGKLGEAVPDDLYIKGSGNTAVIQSSAFFPTPSGSIVTSESQLFNKPYWLQRAQGHNNGICWGNQLFVTVVDTTRSTNMTLCTEVTKEGTYKNDNFKEYVRHVEEYDLQFVFQLCKITLTAEIMTYIHTMDSNILEDWQFGLTPPPSASLQDTYRFVTSQAITCQKTAPPKEKEDPLNKYTFWEVNLKEKFSADLDQFPLGRKFLLQSGLKAKPRLKRSAPTTRAPSTKRKKVKK	994000 M⁻¹	1120 nM	9.98e-06 s⁻¹	10.1 M⁻¹ s⁻¹
HPV58 L1 pentamer N170A (natural protein) EATVYLPPVPVSKVVSTDEYVSRTSIYYYAGSSRLLAVGNPYFSIKSPNNNKKVLVPKVSGLQYRVFRVRLPDPNKFGFPDTSFYNPDTQRLVWACVGLEIGRGQPLGVGVSGHPYLNKFDDTETSNRYPAQPGSDARECLSMDYKQTQLCLIGCKPPTGEHWGKGVACNNNAAATDCPPLELFNSIIEDGDMVDTGFGCMDFGTLQANKSDVPIDICNSTCKYPDYLKMASEPYGDSLFFFLRREQMFVRHFFNRAGKLGEAVPDDLYIKGSGNTAVIQSSAFFPTPSGSIVTSESQLFNKPYWLQRAQGHNNGICWGNQLFVTVVDTTRSTNMTLCTEVTKEGTYKNDNFKEYVRHVEEYDLQFVFQLCKITLTAEIMTYIHTMDSNILEDWQFGLTPPPSASLQDTYRFVTSQAITCQKTAPPKEKEDPLNKYTFWEVNLKEKFSADLDQFPLGRKFLLQSGLKAKPRLKRSAPTTRAPSTKRKKVKK	1.53e+08 M⁻¹	6.52 nM	0.000644 s⁻¹	98400 M⁻¹ s⁻¹
HPV58 L1 pentamer Q165A (natural protein) EATVYLPPVPVSKVVSTDEYVSRTSIYYYAGSSRLLAVGNPYFSIKSPNNNKKVLVPKVSGLQYRVFRVRLPDPNKFGFPDTSFYNPDTQRLVWACVGLEIGRGQPLGVGVSGHPYLNKFDDTETSNRYPAAPGSDNRECLSMDYKQTQLCLIGCKPPTGEHWGKGVACNNNAAATDCPPLELFNSIIEDGDMVDTGFGCMDFGTLQANKSDVPIDICNSTCKYPDYLKMASEPYGDSLFFFLRREQMFVRHFFNRAGKLGEAVPDDLYIKGSGNTAVIQSSAFFPTPSGSIVTSESQLFNKPYWLQRAQGHNNGICWGNQLFVTVVDTTRSTNMTLCTEVTKEGTYKNDNFKEYVRHVEEYDLQFVFQLCKITLTAEIMTYIHTMDSNILEDWQFGLTPPPSASLQDTYRFVTSQAITCQKTAPPKEKEDPLNKYTFWEVNLKEKFSADLDQFPLGRKFLLQSGLKAKPRLKRSAPTTRAPSTKRKKVKK	7.28e+07 M⁻¹	13.8 nM	0.00228 s⁻¹	167000 M⁻¹ s⁻¹
HPV58 L1 pentamer S168A (natural protein) EATVYLPPVPVSKVVSTDEYVSRTSIYYYAGSSRLLAVGNPYFSIKSPNNNKKVLVPKVSGLQYRVFRVRLPDPNKFGFPDTSFYNPDTQRLVWACVGLEIGRGQPLGVGVSGHPYLNKFDDTETSNRYPAQPGADNRECLSMDYKQTQLCLIGCKPPTGEHWGKGVACNNNAAATDCPPLELFNSIIEDGDMVDTGFGCMDFGTLQANKSDVPIDICNSTCKYPDYLKMASEPYGDSLFFFLRREQMFVRHFFNRAGKLGEAVPDDLYIKGSGNTAVIQSSAFFPTPSGSIVTSESQLFNKPYWLQRAQGHNNGICWGNQLFVTVVDTTRSTNMTLCTEVTKEGTYKNDNFKEYVRHVEEYDLQFVFQLCKITLTAEIMTYIHTMDSNILEDWQFGLTPPPSASLQDTYRFVTSQAITCQKTAPPKEKEDPLNKYTFWEVNLKEKFSADLDQFPLGRKFLLQSGLKAKPRLKRSAPTTRAPSTKRKKVKK	1.62e+08 M⁻¹	6.28 nM	0.000522 s⁻¹	54300 M⁻¹ s⁻¹
HPV58 L1 pentamer D154A (natural protein) EATVYLPPVPVSKVVSTDEYVSRTSIYYYAGSSRLLAVGNPYFSIKSPNNNKKVLVPKVSGLQYRVFRVRLPDPNKFGFPDTSFYNPDTQRLVWACVGLEIGRGQPLGVGVSGHPYLNKFADTETSNRYPAQPGSDNRECLSMDYKQTQLCLIGCKPPTGEHWGKGVACNNNAAATDCPPLELFNSIIEDGDMVDTGFGCMDFGTLQANKSDVPIDICNSTCKYPDYLKMASEPYGDSLFFFLRREQMFVRHFFNRAGKLGEAVPDDLYIKGSGNTAVIQSSAFFPTPSGSIVTSESQLFNKPYWLQRAQGHNNGICWGNQLFVTVVDTTRSTNMTLCTEVTKEGTYKNDNFKEYVRHVEEYDLQFVFQLCKITLTAEIMTYIHTMDSNILEDWQFGLTPPPSASLQDTYRFVTSQAITCQKTAPPKEKEDPLNKYTFWEVNLKEKFSADLDQFPLGRKFLLQSGLKAKPRLKRSAPTTRAPSTKRKKVKK	4.18e+06 M⁻¹	240 nM	0.102 s⁻¹	426000 M⁻¹ s⁻¹
HPV58 L1 pentamer N308A (natural protein) EATVYLPPVPVSKVVSTDEYVSRTSIYYYAGSSRLLAVGNPYFSIKSPNNNKKVLVPKVSGLQYRVFRVRLPDPNKFGFPDTSFYNPDTQRLVWACVGLEIGRGQPLGVGVSGHPYLNKFDDTETSNRYPAQPGSDNRECLSMDYKQTQLCLIGCKPPTGEHWGKGVACNNNAAATDCPPLELFNSIIEDGDMVDTGFGCMDFGTLQANKSDVPIDICNSTCKYPDYLKMASEPYGDSLFFFLRREQMFVRHFFNRAGKLGEAVPDDLYIKGSGATAVIQSSAFFPTPSGSIVTSESQLFNKPYWLQRAQGHNNGICWGNQLFVTVVDTTRSTNMTLCTEVTKEGTYKNDNFKEYVRHVEEYDLQFVFQLCKITLTAEIMTYIHTMDSNILEDWQFGLTPPPSASLQDTYRFVTSQAITCQKTAPPKEKEDPLNKYTFWEVNLKEKFSADLDQFPLGRKFLLQSGLKAKPRLKRSAPTTRAPSTKRKKVKK	8.99e+06 M⁻¹	112 nM	0.0272 s⁻¹	243000 M⁻¹ s⁻¹
